Measurements published in article PMC11347169.

Key:
[1] = target: Simian virus 40 large T antigen (L-Tag) (simian virus 40) (UniProt P03070)
[2] = target: Human wild-type DNA polymerase δ (WT Pol δ) (human) (UniProt P28340)
[3] = target: Human wild-type DNA polymerase δ (WT Pol δ) (human) (UniProt P28340); experiment: MST; His6-tagged Pol δ labelled with RED-Tris-NTA, 20 nM final; L-Tag titrated in 16 concentrations beginning with 500 nM; PBS-T buffer; incubated 40 min at 37°C; Monolith NT.115, premium-coated capillaries

Substance “Human fork protection complex (FPC): Claspin, TIMELESS, Tipin (from UniProt Q9HAW4 1-1339; Q9UNS1 1-1208; Q9BVW5 1-301)” has a saturation concentration of FPC for stimulating L-Tag unwinding in the bulk assay (25 nM L-Tag, 0.5 nM forked DNA) [1] of less than 8 nM.

“Simian virus 40 large T antigen (L-Tag) (from UniProt P03070 1-708) (enzyme)” gave a lifetime of Pol δ–PCNA on DNA in single-molecule flow-stretching assays: primer extension alone against leading-strand synthesis with L-Tag [2] of 3 min and a Kd [3] of 6.7 nM.

“Human mini-chromosome maintenance protein 10 (Mcm10) (from UniProt Q7L590 1-875) (natural protein)” was tested, and the saturation concentration of Mcm10 for stimulating L-Tag unwinding in the bulk assay (25 nM L-Tag, 0.5 nM forked DNA) [1] was less than 8 nM.
